Measurements published in patent US20260234584A1, “R-LOOP SENSOR” (FUNDAÇÃO GIMM - GULBENKIAN INSTITUTE FOR MOLECULAR MEDICINE, priority 2023, published 2026).

B1: RHINO: genetically encoded RNA:DNA hybrid-binding sensor; fusion protein comprising 3 HBDs and a reporter domain (e.g., a fluorescent protein) (protein)
chain: MFYAVRRGRKTGVFLTWNECRAQVDRFPAARFKKFATEDEAWAFVRKSASVDGTAGPGSAVFYAVRRGRKTGVFLTWNECRAQVDRFPAARFKKFATEDEAWAFVRKSASVDGTAGPGSAVFYAVRRGRKTGVFLTWNECRAQVDRFPAARFKKFATEDEAWAFVRKSASVDGTAGPGSTGVTGKLDPPVATMVSKGEEDNMASLPATHELHIFGSINGVDFDMVGQGTGNPNDGYEELNLKSTKGDLQFSPWILVPHIGYGFHQYLPYPDGMSPFQAAMVDGSGYQVHRTMQFEDGASLTVNYRYTYEGSHIKGEAQVKGTGFPADGPVMTNSLTAADWCRSKKTYPNDKTIISTFKWSYTTGNGKRYRSTARTTYTFAKPMAANYLKNQPMYVFRKTELKHSKTELNFKEWQKAFTDVMGMDELYK

Columns and labels:
Type in all cases: cell-based, human
[1] = test system: R-loops foci in U2OS cells; assay: Quantification of RHINO R-loops foci after transcription inhibition with triptolide
Description: (A) Illustration of RHINO structure (left) and DNA:RNA hybrid labelling in an R-loop behind a transcribing RNA Pol II complex (right). The positions of the amino acids substituted in the RHINO mutants are indicated by red […]) and blue ([…]) asterisks. (B) Confocal microscopy images of RHINO expressed in U2OS cells together with mCherry-H2B to mark the cell nucleus and a corresponding max. intensity projection. RHINO spots throughout the nucleoplasm (highlighted in inset image) and intense labelled foci in the nucleoli are shown. (C) Comparison of RHINO and S9.6 antibody labelling of DNA:RNA hybrids. The nucleolar signals of S9.6 and RHINO are mutually exclusive (inset). (D) Expression of two RHINO mutant constructs and mCherry-histone-H2B. […] (E) Max. intensity projections of live U2OS cells expressing RHINO alone (left) or co-expressing mScarlet-i tagged human RNase H1 (right) and quantification of RHINO foci for each condition. (F) Quantification of RHINO foci upon use of a rapid inducible RNase H1. […] Quantification of RHINO foci before and 1 h after TA addition. (G) Max. intensity projections of random live U2OS cells expressing RHINO before and after 1 h incubation with Triptolide and quantification of RHINO foci number. (H) Max. intensity projections of the same live U2OS cells expressing RHINO before and after 1 h incubation with Triptolide and quantification of RHINO foci number. […]

[2] = test system: nucleolar R-loops in U2OS cells; assay: FRAP on individual nucleolar RHINO foci; details: in 200 seconds
Description: (A) Labelling of nucleolar R-loops in live U2OS cells. Nucleoli are labelled by a red fluorescent nucleolar marker. Bright RHINO foci in several nucleoli are indicated with arrowheads. (B) Dissecting R-loop localization in nucleolar substructures. U2OS cells expressing RHINO were fixed and stained with an anti-UBF antibody marking the fibrillar centres/dense fibrillar component interface. Display of two super-resolution microscopy image sets acquired with structured illumination (top) and Airyscan 2 technology (bottom). (C) Measurements of nucleolar R-loops dynamics by FRAP on RHINO foci inside nucleoli. The fluorescence within the red circle was bleached (false colour images) and the recovery monitored over time. […] (D) Labelling of Tel-R-loops in live U2OS cells co-expressing RHINO and iRFP-TRF2. […]
Owing to the lack of robust tools to image and collect quantitative parameters of R-loops in live cells, a clear understanding of R-loops dynamics and of their specific kinetics at distinct genomic loci is scarce. […] To investigate the dynamics of nucleolar R-loops, fluorescence recovery was performed after photobleaching (FRAP) experiments in individual nucleolar RHINO foci (FIG. 2C). We observed a rapid turnover of fluorescent RHINO molecules, which restored 90% of the initial fluorescence intensity in 200 seconds (FIG. 2C).

[3] = test system: telomeric R-loops in U2OS cells; assay: FRAP at labelled telomeres
Description: (A) Labelling of nucleolar R-loops in live U2OS cells. Nucleoli are labelled by a red fluorescent nucleolar marker. Bright RHINO foci in several nucleoli are indicated with arrowheads. (B) Dissecting R-loop localization in nucleolar substructures. U2OS cells expressing RHINO were fixed and stained with an anti-UBF antibody marking the fibrillar centres/dense fibrillar component interface. Display of two super-resolution microscopy image sets acquired with structured illumination (top) and Airyscan 2 technology (bottom). (C) Measurements of nucleolar R-loops dynamics by FRAP on RHINO foci inside nucleoli. The fluorescence within the red circle was bleached (false colour images) and the recovery monitored over time. […] (D) Labelling of Tel-R-loops in live U2OS cells co-expressing RHINO and iRFP-TRF2. Several telomeres show directly adjacent or overlapping labelling of R-loops (magnified details 1-5). […] (E) Measurements of Tel-R-loops dynamics by FRAP of wild-type RHINO compared to both mutants and diffuse GFP at labelled telomeres. False colour images show the wild-type RHINO labelled cell with the bleach region (red circle). The curves display the mean intensity (+/−SD) of RHINO foci, RHINO mutants and diffuse GFP as control. […]

Row | Molecule | number of R-loops foci detected by RHINO ([1]; one-hour treatment, bulk cell population of U2OS cells) | reduction in the number of R-loops foci ([1]; same RHINO-expressing cells imaged before and one hour after treatment) [%] | restored initial fluorescence intensity after photobleaching [2] [%] | fluorescence recovery relative to initial intensity ([3]; major fraction of telomeric R-loops, within 10-15 seconds after photobleaching) [%] | fluorescence recovery, second population of telomeric R-loops ([3]; other (minor) population of telomeric R-loops)
1 | CC(C)[C@]12O[C@H]1[C@@H]1O[C@]13[C@]1(O[C@H]1C[C@H]1C4=C(CC[C@@]13C)C(=O)OC4)[C@@H]2O [triptolide] | significantly decrease | 46 | – | – | –
2 | B1 | – | – | 90 | 88 | little to no recovery
